Data on 1 molecule can be found in article PMC6498860 (Cell, 2019).

This experiment has as its target histone H4 (Xenopus laevis, UniProt P62799 2-103). Kind of experiment: cryo-EM structure.

B1: Dot1L(2-416) (domain or fragment)
chain: GEKLELRLKSPVGAEPAVYPWPLPVYDKHHDAAHEIIETIRWVCEEIPDLKLAMENYVLIDYDTKSFESMQRLCDKYNRAIDSIHQLWKGTTQPMKLNTRPSTGLLRHILQQVYNHSVTDPEKLNNYEPFSPEVYGETSFDLVAQMIDEIKMTDDDLFVDLGSGVGQVVLQVAAATNCKHHYGVEKADIPAKYAETMDREFRKWMKWYGKKHAEYTLERGDFLSEEWRERIANTSVIFVNNFAFGPEVDHQLKERFANMKEGGRIVSSKPFAPLNFRINSRNLSDIGTIMRVVELSPLKGSVSWTGKPVSYYLHTIDRTILENYFSSLKNPKLREEQEAARRRQQRESKSNAATPTKGPEGKVAGPADAPMDSGAEEEKAGAATVKKPSPSKARKKKLNKKGRKMAGRKRGRPKK
B1: the binding result was “binds”.
